B1: library; numbered along this chain (parent)
chain: MRKPRAAVGSGHRKQAASQEGRQKHAKNNSQAKPSACDGLARQPEEVVLQASVSSYHLFRDVAEVTAFRGSLLSWYDQEKRDLPWRRRAEDEMDLDRRAYAVWVSEVMLQQTQVATVINYYTGWMQKWPTLQDLASASLEEVNQLWAGLGYYSRGRRLQEGARKVVEELGGHMPRTAETLQQLLPGVGRYTAGAIASIAFGQATGVVDGNVARVLCRVRAIGADPSSTLVSQQLWGLAQQLVDPARPGDFNQAAMELGATVCTPQRPLCSQCPVESLCRARQRVEQEQLLASGSLSGSPDVEECAPNTGQCHLCLPPSEPWDQTLGVVNFPRKASRKPPREESSATCVLEQPGALGAQILLVQRPNSGLLAGLWEFPSVTWEPSEQLQRKALLQELQRWAGPLPATHLRHLGEVVHTFSHIKLTYQVYGLALEGQTPVTTVPPGARWLTQEEFHTAAVSTAMKKVFRVYQGQQPGTCMGSKRSQVSSPCSRKKPRMGQQVLDNFFRSHISTDAHSLNSAAQ

Variants of: B1
Assay: 8OG:A repair function score (normalized; synonymous = 0, nonsense = -1) (normalized log-likelihood score); higher = more repair activity (WT-like)
Details: with 8OG:A DNA repair reporter (GFP) in HEK-293 MUTYH KO cells
Outline: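 GFP+ (repair) and GFP− bins of viable mCherry+ cells were collected at 72 h from MUTYH knockout HEK-293 cells bearing lentiviral MUTYH cDNA NNN codon-scan libraries in 10 pg/ml doxycycline, co-transfected with an 8OG:A GFP repair reporter and mCherry. Tile amplicons were sequenced, and per-tile Rosace fitness scores were normalized to a repair function score anchored on synonymous and nonsense distributions. Synonymous medians were set to 0 and nonsense to -1, with variants under 300 counts per million at the start removed.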
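Also: cells sorted at 72 h after reporter transfection.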

8OG:A repair function score: each site, then its substitutions
P320: L -0.0348, D -0.134, V -0.0867, S -0.0238, H 0.0683, E -0.11, A -0.0474, F -0.0659, G 0.00385, W -0.179, I -0.0716, N -0.0442, Y -0.0806, Q -0.104, T -0.0175, M -0.0571, K -0.1, R -0.0447
G326: E -0.144, L -0.422, K -0.179, D -0.344, C -0.508, M -0.634, Q -0.123, A -0.264, R -0.176, H -0.203, P -0.475, I -0.411, T -0.298, S -0.307, F -0.812, V -0.514, Y -0.435, N -0.0169
N329: K -0.105, A -0.161, S -0.235, Y -0.104, G -0.365, D -0.288, F -0.345, H -0.276, E -0.365, C -0.102, P -0.438, V -0.246, M -0.264, L -0.301, R -0.0858, T -0.361, W -0.525, I -0.365, Q -0.0134
Q323: S -0.0829, K -0.0269, F -0.0491, H -0.0776, T 0.0271, P -0.0158, L -0.0798, C -0.0398, R -0.099, Y -0.013, N 0.061, D 0.0164, E -0.0118, M -0.0348, A -0.0752, I -0.141, V -0.00203, G -0.0264, W -0.0368
W321: Y -0.123, R -0.203, I -0.25, C -0.313, V -0.0988, K -0.189, F -0.00541, D -0.53, Q -0.205, E -0.0643, L -0.0977, G -0.258, A -0.265, S -0.257, M -0.218, P -0.252, T -0.301
K333: V -0.0946, F -0.221, A 0.0254, D -0.903, N -0.205, M -0.0664, Y -0.0195, C 0.053, H -0.0128, P 0.038, R 0.0284, I -0.0317, T -0.137, E -1.01, W -0.0431, Q -0.166, G -0.131, S -0.141, L -0.227
R332: V -0.216, E -0.449, T -0.246, A -0.0476, K -0.206, S -0.0346, Y -0.166, F -0.0556, W 0.0485, D -0.574, P -0.191, I -0.256, C -0.154, G -0.193, H -0.163, N -0.315, M -0.332, Q -0.0904, L -0.109
L325: D -0.204, K -0.0528, Y -0.173, G -0.16, N -0.136, I -0.054, T -0.113, C -0.0972, E -0.08, Q -0.141, V -0.142, A -0.0759, R -0.00254, H -0.0759, F -0.00965, P -0.354, S -0.135, W -0.0969, M -0.0835
V327: Q -0.4, T -0.119, Y -0.526, C -0.201, E -0.178, N -0.696, W -0.425, G -0.53, L -0.388, H -0.532, F -0.513, I -0.257, S -0.274, D -0.777, M -0.375, K -0.459, R -0.583, P -0.051, A -0.205

Source: the supplement of paper PMC11908140
